# Laboratory results taken from PMC9352689 (Nature Communications, 2022).
# Substitutions are numbered along the chain they refer to.
# B1: COVA1-07 (antibody, V domains shown)
# VH: QVQLVESGAEVKKPGSSVKVSCKASGGTLSSYAITWVRQAPGQGLEWVGGIIPIFGTANYAQKFQGRVTITADESTSTAYMELSSLRSEDTAVYYCARVGAYDSSGYSNDYWGQGTLVTVSS
# VL: DIQLTQSPATLSLSPGERATLSCRASQSVSSYLAWYQQKPGQAPRLLIYDASNRATGIPARFSGSGSGTDFTLTISSLEPEDFAVYYCQQRSNWPPRVTFGGGTKVEIK
# notes: copies: 2 + 2
# B2: COVA2-14 (antibody, V domains shown)
# VH: B1 VH with E6Q, L29F, T35I, V48M, A72T, G100R, A101Y, S108Y, N109E
# VL: B1 VL with D1E, Q3V, K39E, R97M, V98Y, G102Q
# notes: copies: 2 + 2
# B3: COVA2-18 (antibody, V domains shown)
# VH: EVQLVQSGAEVKKPGSSVKVSCKASGGTFSSYAISWVRQAPGQGLEWMGGIIPIFGTTNYAQKFQGRVTITTDESTSTAYMELSSLRSEDTAVYYCARVYSYDSSGYYLEYWGQGTRVTVSS
# VL: B1 VL with D1E, Q3V, R97S, V98I, G102Q, K105R, V106L
# notes: copies: 2 + 2
# Molecular target: SARS-CoV-2 soluble S2, his-tagged (SARS-CoV-2, ancestral (Wuhan-Hu-1), UniProt P0DTC2)
# Assay: ELISA; COVA MAbs on SARS-CoV-2 S and on soluble S2 (Fig. S5A); format not told
# Conditions: both partners purified
row,Binder,binding result
1,B1,binds
2,B2,binds
3,B3,binds

# Molecular target: T1, SARS-CoV-2 S, full-length wild type, expressed on the cell surface (SARS-CoV-2, labelled B.1 in Fig. S6A, UniProt P0DTC2)
# T1 construct: source: HEK293T, transfected, on the cell surface
# Assay: flow cytometry on cells
# Conditions: one partner purified
row,Binder,binding result
1,B1,binds
2,B2,binds
3,B3,binds

# Molecular target: MERS-CoV S, full-length, on the cell surface (MERS-CoV, strain , UniProt K9N5Q8)
# Assay: flow cytometry on cells
# Conditions: one partner purified
row,Binder,binding result
1,B1,no binding (tested: 50 μg/mL)
2,B2,no binding (tested: 50 μg/mL)
3,B3,no binding (tested: 50 μg/mL)

# Molecular target: bat CoV SHC014 S, full-length, on the cell surface (Bat SARS-like coronavirus RsSHC014, UniProt U5WLK5)
# Assay: flow cytometry on cells
# Conditions: one partner purified
row,Binder,binding result
1,B1,binds
2,B2,binds
3,B3,binds

# Molecular target: HCoV-NL63 S, full-length, on the cell surface (HCoV-NL63, strain , UniProt Q6Q1S2)
# Assay: flow cytometry on cells
# Conditions: one partner purified
row,Binder,binding result
1,B1,no binding (tested: 50 μg/mL)
2,B2,no binding (tested: 50 μg/mL)
3,B3,no binding (tested: 50 μg/mL)

# Molecular target: HCoV-229E S, full-length, on the cell surface (HCoV-229E, strain , UniProt P15423)
# Assay: flow cytometry on cells
# Conditions: one partner purified
row,Binder,binding result
1,B1,no binding (tested: 50 μg/mL)
2,B2,no binding (tested: 50 μg/mL)
3,B3,no binding (tested: 50 μg/mL)

# Molecular target: SARS-CoV S, full-length, on the cell surface (SARS-CoV, strain , UniProt P59594)
# Assay: flow cytometry on cells
# Conditions: one partner purified
row,Binder,binding result
1,B1,binds
2,B2,binds
3,B3,binds

# Molecular target: HCoV-HKU1 S, full-length, on the cell surface (HCoV-HKU1, isolate  (entry: …, UniProt Q5MQD0))
# Assay: flow cytometry on cells
# Conditions: one partner purified
row,Binder,binding result
1,B1,no binding (tested: 50 μg/mL)
2,B2,no binding (tested: 50 μg/mL)
3,B3,no binding (tested: 50 μg/mL)

# Molecular target: HCoV-OC43 S, full-length, on the cell surface (HCoV-OC43, strain , UniProt P36334)
# Assay: flow cytometry on cells
# Conditions: one partner purified
row,Binder,binding result
1,B1,no binding (tested: 50 μg/mL)
2,B2,no binding (tested: 50 μg/mL)
3,B3,no binding (tested: 50 μg/mL)
